Measurements reported in the supplement of paper PMC9112550, “Optimization of the antimicrobial peptide Bac7 by deep mutational scanning” (BMC Biology, 2022).

tested on: Escherichia coli TOP10; assay: shrunken log2 fold change of peptide-encoding DNA abundance (4.5 h post-induction vs induction); higher = less antimicrobial activity (less host growth inhibition); conditions: time post-induction: 4.5 h; library: site-saturation at positions 5, 18, 19, 20
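Note: peptides expressed intracellularly from a pBAD plasmid library in pooled LB shake-flask culture, induced with 0.3% L-arabinose, DNA abundance read by NGS, three biological replicates, DESeq2 with apeglm shrinkage.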

Q: RRIRKRPPRLPRPRPRPFAGPRP was tested. Which “shrunken log2 fold change” value did it give?
A: Its value is 0.191.

Q: Which “shrunken log2 fold change” value does the source give for RRIRMRPPRLPRPRPRPAWFPRP here?
A: Its value is 0.634.

Q: How did the “shrunken log2 fold change” value turn out when RRIRYRPPRLPRPRPRPITKPRP was run?
A: Its value is -0.184.

Q: With RRIRHRPPRLPRPRPRPYSTPRP as the sequence, how does the “shrunken log2 fold change” value read?
A: The value was 0.122.

Q: For RRIRMRPPRLPRPRPRPKMSPRP, which “shrunken log2 fold change” value is on record?
A: Its value is 0.123.

Q: RRIRVRPPRLPRPRPRPWWSPRP was tested. Which “shrunken log2 fold change” value did it give?
A: The value was 0.0392.

Q: RRIRLRPPRLPRPRPRPRFPPRP was tested. Which “shrunken log2 fold change” value did it give?
A: Its value is -0.0246.

Q: Which “shrunken log2 fold change” value does the source give for RRIRTRPPRLPRPRPRPVISPRP here?
A: Its value is -0.21.

Q: How did the “shrunken log2 fold change” value turn out when RRIRPRPPRLPRPRPRPESDPRP was run?
A: The value was 0.235.

Q: How did the “shrunken log2 fold change” value turn out when RRIRMRPPRLPRPRPRPCGEPRP was run?
A: Its value is 0.967.

Q: RRIRRRPPRLPRPRPRPSNYPRP was tested. Which “shrunken log2 fold change” value did it give?
A: The value was -0.169.

Q: How did the “shrunken log2 fold change” value turn out when RRIRNRPPRLPRPRPRPMTPPRP was run?
A: Its value is 0.244.

Q: With RRIRIRPPRLPRPRPRPQEWPRP as the sequence, how does the “shrunken log2 fold change” value read?
A: Its value is -0.0108.

Q: For RRIRRRPPRLPRPRPRPQEKPRP, which “shrunken log2 fold change” value is on record?
A: The value was 0.0332.

Q: Which “shrunken log2 fold change” value does the source give for RRIRGRPPRLPRPRPRPNSTPRP here?
A: Its value is 0.344.

Q: For RRIRGRPPRLPRPRPRPWHCPRP, which “shrunken log2 fold change” value is on record?
A: The value was -0.0173.

Q: RRIRWRPPRLPRPRPRPVSWPRP was tested. Which “shrunken log2 fold change” value did it give?
A: Its value is 0.782.

Q: Which “shrunken log2 fold change” value does the source give for RRIRQRPPRLPRPRPRPDWGPRP here?
A: Its value is -0.0197.

Q: With RRIRFRPPRLPRPRPRPDNSPRP as the sequence, how does the “shrunken log2 fold change” value read?
A: Its value is -0.726.

Q: How did the “shrunken log2 fold change” value turn out when RRIRTRPPRLPRPRPRPIMNPRP was run?
A: The value was 0.0436.

Q: How did the “shrunken log2 fold change” value turn out when RRIRKRPPRLPRPRPRPTTPPRP was run?
A: Its value is 0.427.

Q: Which “shrunken log2 fold change” value does the source give for RRIRMRPPRLPRPRPRPSHGPRP here?
A: The value was 0.385.

Q: RRIRWRPPRLPRPRPRPKTLPRP was tested. Which “shrunken log2 fold change” value did it give?
A: Its value is 0.19.

Q: With RRIRMRPPRLPRPRPRPNRGPRP as the sequence, how does the “shrunken log2 fold change” value read?
A: Its value is 0.218.

Q: For RRIRARPPRLPRPRPRPWFQPRP, which “shrunken log2 fold change” value is on record?
A: Its value is 0.0762.

Q: How did the “shrunken log2 fold change” value turn out when RRIRFRPPRLPRPRPRPQITPRP was run?
A: Its value is -0.481.

Q: For RRIRKRPPRLPRPRPRPYKGPRP, which “shrunken log2 fold change” value is on record?
A: Its value is -0.185.

Q: With RRIRERPPRLPRPRPRPKLTPRP as the sequence, how does the “shrunken log2 fold change” value read?
A: The value was 0.21.

Q: For RRIRVRPPRLPRPRPRPCLAPRP, which “shrunken log2 fold change” value is on record?
A: The value was -0.0591.

Q: Which “shrunken log2 fold change” value does the source give for RRIRPRPPRLPRPRPRPIGMPRP here?
A: Its value is -0.232.

Q: Which “shrunken log2 fold change” value does the source give for RRIRFRPPRLPRPRPRPGVQPRP here?
A: Its value is 0.119.

Q: How did the “shrunken log2 fold change” value turn out when RRIRWRPPRLPRPRPRPGDLPRP was run?
A: The value was 0.0106.

Q: How did the “shrunken log2 fold change” value turn out when RRIRKRPPRLPRPRPRPFPNPRP was run?
A: Its value is 0.0546.

Q: With RRIRIRPPRLPRPRPRPFWEPRP as the sequence, how does the “shrunken log2 fold change” value read?
A: The value was 0.366.

Q: How did the “shrunken log2 fold change” value turn out when RRIRRRPPRLPRPRPRPHVGPRP was run?
A: Its value is 0.0734.

Q: With RRIRCRPPRLPRPRPRPFWSPRP as the sequence, how does the “shrunken log2 fold change” value read?
A: The value was -0.331.

Q: RRIRTRPPRLPRPRPRPPGCPRP was tested. Which “shrunken log2 fold change” value did it give?
A: Its value is 0.528.

Q: RRIRMRPPRLPRPRPRPYDAPRP was tested. Which “shrunken log2 fold change” value did it give?
A: Its value is 0.11.

Q: How did the “shrunken log2 fold change” value turn out when RRIRERPPRLPRPRPRPYAPPRP was run?
A: Its value is -0.624.

Q: For RRIRSRPPRLPRPRPRPGRNPRP, which “shrunken log2 fold change” value is on record?
A: The value was -0.225.

Q: For RRIRARPPRLPRPRPRPCFTPRP, which “shrunken log2 fold change” value is on record?
A: Its value is -0.172.

Q: For RRIRWRPPRLPRPRPRPLLEPRP, which “shrunken log2 fold change” value is on record?
A: The value was 0.216.

Q: For RRIRFRPPRLPRPRPRPDHHPRP, which “shrunken log2 fold change” value is on record?
A: The value was -0.452.

Q: For RRIRNRPPRLPRPRPRPTFFPRP, which “shrunken log2 fold change” value is on record?
A: The value was -0.139.

Q: How did the “shrunken log2 fold change” value turn out when RRIRQRPPRLPRPRPRPNNCPRP was run?
A: The value was -0.138.

Q: For RRIRHRPPRLPRPRPRPCCCPRP, which “shrunken log2 fold change” value is on record?
A: Its value is -0.421.

Q: Which “shrunken log2 fold change” value does the source give for RRIRARPPRLPRPRPRPQSWPRP here?
A: The value was 0.322.

Q: With RRIRWRPPRLPRPRPRPQNMPRP as the sequence, how does the “shrunken log2 fold change” value read?
A: The value was -0.0938.

Q: RRIRMRPPRLPRPRPRPMESPRP was tested. Which “shrunken log2 fold change” value did it give?
A: The value was -0.00987.

Q: How did the “shrunken log2 fold change” value turn out when RRIRVRPPRLPRPRPRPWQAPRP was run?
A: The value was -0.0138.

Q: RRIRKRPPRLPRPRPRPLIMPRP was tested. Which “shrunken log2 fold change” value did it give?
A: Its value is -0.376.

Q: For RRIRRRPPRLPRPRPRPFVQPRP, which “shrunken log2 fold change” value is on record?
A: The value was -0.0288.

Q: Which “shrunken log2 fold change” value does the source give for RRIRLRPPRLPRPRPRPTYMPRP here?
A: The value was -0.469.

Q: RRIRIRPPRLPRPRPRPERKPRP was tested. Which “shrunken log2 fold change” value did it give?
A: The value was 0.00827.

Q: For RRIRLRPPRLPRPRPRPNKCPRP, which “shrunken log2 fold change” value is on record?
A: Its value is -0.323.

Q: Which “shrunken log2 fold change” value does the source give for RRIRWRPPRLPRPRPRPFWSPRP here?
A: The value was 0.284.

Q: With RRIRFRPPRLPRPRPRPHSMPRP as the sequence, how does the “shrunken log2 fold change” value read?
A: The value was -0.328.

Q: How did the “shrunken log2 fold change” value turn out when RRIRIRPPRLPRPRPRPHQGPRP was run?
A: The value was -0.117.

Q: RRIRTRPPRLPRPRPRPYVIPRP was tested. Which “shrunken log2 fold change” value did it give?
A: The value was -1.03.

Q: RRIRHRPPRLPRPRPRPKGIPRP was tested. Which “shrunken log2 fold change” value did it give?
A: The value was -0.092.

Q: For RRIRRRPPRLPRPRPRPRGHPRP, which “shrunken log2 fold change” value is on record?
A: Its value is 2.95.

Q: With RRIRWRPPRLPRPRPRPCIWPRP as the sequence, how does the “shrunken log2 fold change” value read?
A: Its value is 0.0256.

Q: How did the “shrunken log2 fold change” value turn out when RRIRIRPPRLPRPRPRPDRTPRP was run?
A: Its value is -0.0709.
